According to the supplement of paper PMC9170038:

Test system: MS2 coat protein
Test: apparent KD of MS2 coat protein; designed switch direction (-1 OFF switch, 1 ON switch): -1; higher = weaker reporter binding
How it was run: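 Each step of the titration lasted 0.8–1.5 h at the lowest concentration and 10–20 min at the highest. The protein, SNAP-549-labelled MS2 coat protein, went from 0.7 or 1.5 nM doubling to 3 µM over RNA switches transcribed on Illumina chips by stalled E. coli RNA polymerase. Normalised cluster fluorescence was curve-fitted, and the per-design median over clusters is given as apparent KD.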

[1] = Eterna round: R95, input ligand: microRNA oligo, concentration not stated
[2] = Eterna round: R95, input ligand: FMN 200 uM
[3] = Eterna round: R95, input ligand: none
[4] = input ligand: microRNA oligo, concentration not stated

Sequence	apparent KD of MS2 coat protein [1]	apparent KD of MS2 coat protein (input ligand: FMN 200 uM)	apparent KD of MS2 coat protein (input ligand: none)	apparent KD of MS2 coat protein [2]	apparent KD of MS2 coat protein [3]	apparent KD of MS2 coat protein [4]
GCAGGAUAAGUGAGGAUAUACCUAUGGAUACAUAGGUAGAAGGUACAUGAGGAUCACCCAUGUUCCUUACCUGC [Fiskers BMX 4 - 65] (puzzle: Brourd's mod of Exclusion 4)	11.7 nM	–	–	–	–	–
GCAGGCUUUUGCUCGCCUUACAUGAGGAUCACCCAUGUGGGCCCGGGCCCGGGCCCGCCGGGCCCGGGCCCGGGCCC (Eterna round: R97, puzzle: Sensor, turn-off variant 1)	–	30.8 nM	32.1 nM	–	–	–
GCAGGUCAAGGAUAUACAUGAGGAUCACCCAUGUAGAUCAACCAGCGAUAGCUGGAAUGUAGAAGGUGACCUGC [E3/5-C2] (Eterna round: R97, puzzle: Exclusion 3)	–	67.6 nM	23.7 nM	–	–	–
GCAUGAAUGUAGGAUAUCUGUAGGGCCCGGACCAGAGAAGGACGCACAUGAGGAUCACCCAUGUCUUGAUGAUC [Eternabot (L1) Solution 15] (Eterna round: R97, puzzle: Exclusion 6)	–	540 nM	239 nM	–	–	–
GCAUGGUGAGGAUAUGCAGAAGGGCAACGGUCAUCAUGACUACAUGAGGAUCACCCAUGUAGAAGGCACACAUG [Betearor] (puzzle: Exclusion 2)	42.5 nM	–	–	–	–	–
GCAUGUCAGUAGGAUAUGCAGCACUUGAUACCUGCAGAAGGACUGACAUGAGGAUCACCCAUGUCUCGGGUGCU [EX6 A.10] (Eterna round: R97, puzzle: Exclusion 6)	–	16.8 nM	149 nM	–	–	–
GCAUUGAGUGUGAGGAUAUGCUGGUCGUAAGAUCAGCAGAAGGCACAUGAGGAUCACCCAUGUGAAAACAAUGC [Mat - Exclusion 4 - JL Mod - D67] (puzzle: Brourd's mod of Exclusion 4)	23 nM	–	–	125 nM	23.4 nM	–
GCAUUUGUAGGAUAUACAUGAGGAUCACCCAUGUCGAGACGUGCAAGGCUUCCCAACUGUAGAAGGACGCGGCC [Eternabot (L1) Solution 61] (Eterna round: R97, puzzle: Exclusion 3)	–	30.8 nM	27.4 nM	–	–	–
GCCAGAGCAGGAUAUUCAAUAUCACACAUGAGGAUCACCCAUGUCCAGCGAAAGCUGGAGGGAGAAGGGCUCUGGC [Fiskers Ex 5 - 12] (puzzle: Exclusion 5)	61.4 nM	–	–	18.8 nM	88.2 nM	–
GCCAGAGCAGGAUAUUCAGUAUCACACAUGAGGAUCACCCAUGUCCAGCGAAAGCUGGAGGGAGAAGGGCUCUGGC [Fiskers Ex 5 - 13] (puzzle: Exclusion 5)	108 nM	–	–	40.8 nM	298 nM	–
GCCAGAGCAGGAUAUUGAUAAAUUCACAUGAGGAUCACCCAUGUCCAGCGAAAGCUGGAACGAGAAGGGCUCUGGC [Mat - Exclusion 5 - Eli mod - D87] (puzzle: Exclusion 5)	13.3 nM	–	–	11.7 nM	13.7 nM	–
GCCAGUUUUGUGAGGAUAUCGUGCCGUUAGCGGCAUGAGAAGGCACAUGAGGAUCACCCAUGUGUGCAUCCGAG [Eternabot (L1) Solution 91] (Eterna round: R97, puzzle: Brourd's mod of Exclusion 4)	–	157 nM	28.4 nM	–	–	–
GCCCAGAGAGGAUAUACAUGAGGAUCACCCAUGUAGAGCUUGUCUGCAGUGAAAGGAUGUAGAAGGCUCGGGCA [Racearza] (Eterna round: R97, puzzle: Exclusion 3)	–	42.6 nM	26.8 nM	–	–	–
GCCCAGCUAGGAUAUCGCACUGCAGACAUGAGGAUCACCCAUGUGAUGAGGUCUGAAUCCCGAGAAGGAGCAUGGA [Enlain] (puzzle: Exclusion 5)	15.8 nM	–	–	–	–	–
GCCCGGGCAGGAUAUACAAUGAUCGUGAGAAAUCGUGAUCGACAUGAGGAUCACCCAUGUAGAAGGGCCCGGGC [-34.5, -32.3 kcal, A 28% 2] (Eterna round: R97, puzzle: Exclusion 2)	–	116 nM	50.5 nM	–	–	–
GCCGAAAAAGUGAGGAUAUACCUAUGGAAACAUAGGUAGAAGGCACAUGAGGAUCACCCAUGUAUCCUAACGGC [Mat - Exclusion 4 - Eli Mod - D28] (Eterna round: R97, puzzle: Brourd's mod of Exclusion 4)	–	268 nM	28.5 nM	–	–	–
GCCGAUUAAGUGAGGAUAUACCUAUGGAAACAUAGGUAGAAGGCACAUGAGGAUCACCCAUGUUCCUAUACGGC [Fiskers BMX 4 - 5] (puzzle: Brourd's mod of Exclusion 4)	12.3 nM	–	–	36.4 nM	11 nM	–

Sequence	apparent KD of MS2 coat protein [1]	apparent KD of MS2 coat protein (input ligand: FMN 200 uM)	apparent KD of MS2 coat protein (input ligand: none)	apparent KD of MS2 coat protein [2]	apparent KD of MS2 coat protein [3]	apparent KD of MS2 coat protein [4]
GCCGAUUAAGUGAGGAUAUACCUAUGGAUACAUAGGUAGAAGGUACAUGAGGAUCACCCAUGUUCCUCAACGGC [Fiskers BMX 4 - 9] (puzzle: Brourd's mod of Exclusion 4)	8.93 nM	–	–	–	–	–
GCCGCCGCCUUGGCGGCGGACAUGAGGAUCACCCAUGUCAAGCUUUUGCUCGUCUUAUUUGGCCGGCUUGCCGGCCA [Olib_1] (Eterna round: R97, puzzle: Sensor, turn-off variant 1)	–	24.5 nM	26.1 nM	–	–	–
GCCGUACAAGGAUAUCUAUCGCAAAACAUGAGGAUCACCCAUGUGUAUCCUAACCGGCGAAGAGAAGGUGUAGUUA [Letelabe] (Eterna round: R97, puzzle: Exclusion 5)	–	24.4 nM	18.1 nM	–	–	–
GCCGUGUUAGGAUAUCGCUCGACGAAUAGUUGUCGGAGGAACGAGAAGGAACAUGAGGAUCACCCAUGUGUCAC [Eternabot (L1) Solution 33] (Eterna round: R97, puzzle: Exclusion 4)	–	57.5 nM	21.4 nM	–	–	–
GCCUCACUUGAGGAUCACCCAAGUCAGGAUAUCUACAAGCCGGCCAUACCGGCUUGCAAGAGAAGGGACUCUAA [Xemamaqu] (Eterna round: R97, puzzle: Exclusion 1)	–	178 nM	38.5 nM	–	–	–
GCCUCACUUGAGGAUCACCCAAGUCAGGAUAUUUGAAAGCAAGCCUAAAACACGCGUAAAAGAAGGGACUUGAA [Armare] (Eterna round: R97, puzzle: Exclusion 1)	–	30.3 nM	20.9 nM	–	–	–
GCCUUAUCCGUCAGGAUAUACAGCCGCUCCCUGUUGUAGAAGGGACAUGAGGAUCACCCAUGUACGUACCACCG [alecazam8] (Eterna round: R97, puzzle: Brourd's mod of Exclusion 4)	–	28.1 nM	29.2 nM	–	–	–
GCCUUAUCGGUCAGGAUAUACACCCGUCACUUGUUGUAGAAGGGACAUGAGGAUCACCCAUGUACAUUACAUUG [alecazam37] (Eterna round: R97, puzzle: Brourd's mod of Exclusion 4)	–	31.3 nM	26 nM	–	–	–
GCCUUGGGAGUCAGGAUAUACAAUAAAAUAAUUAAGUAGAAGGGACAUGAGGAUCACCCAUGUACAUUACAUCG [alecazam31] (Eterna round: R97, puzzle: Brourd's mod of Exclusion 4)	–	39.5 nM	25.7 nM	–	–	–
GCGACAGCGGUUAGGAUAUAUGUUAGGACGUAGAUAUAGAAGGAACAUGAGGAUCACCCAUGUUUAAAAUGGGA [Eternabot (L1) Solution 71] (Eterna round: R97, puzzle: Brourd's mod of Exclusion 4)	–	69.5 nM	71.9 nM	–	–	–
GCGCCAUCGUGAGAUGGCGUAUAAACAUGAGGAUCACCCAUGUAGGAUAUCGAUUGCUUUGCAGUCGAGAAGGGCAUUAUAAGU [JL ENG3 3.75] (Eterna round: R96, puzzle: Exclusion NG 3)	–	29.2 nM	28.4 nM	–	–	19 nM
GCGGGAAAAGGAUAUGAGAGGUAAUACAUGAGGAUCACCCAUGUGAUAGACUCUGUGCUUUUAGAAGGUUUAUGUC [Eternabot (L1) Solution 19] (Eterna round: R97, puzzle: Exclusion 5)	–	14.3 nM	15.3 nM	–	–	–
GCGGUACAUGAGGAUCACCCAUGUCAGGAUAUCCGCUGUAACUUAAUAAAUAAGCGGUGGAGAAGGGACUUCGC [-18.24, -17.54 kcal, 30% A] (Eterna round: R97, puzzle: Exclusion 1)	–	34.2 nM	27.6 nM	–	–	–
GCGUACAGCCUAAGCAGUGACAUGAGGAUCACCCAUGUACGAACGUUUACCAAGCUUGUCUUAAUACCAUUAUAAAU [Eternabot (L1) Solution 20] (Eterna round: R97, puzzle: Sensor, turn-off variant 1)	–	23.7 nM	28.9 nM	–	–	–
GCGUAGUAUGUAGGAUAUCGGUCAGUUUCUGAUCGAGAAGGACAUGAGGAUCACCCAUGUAAAACGCCCGCUUUGUGGGUACGC [JL ENG1 3.59] (Eterna round: R96, puzzle: Exclusion NG 1)	–	55.4 nM	22.4 nM	–	–	17.6 nM
GCGUAGUAUGUAGGAUAUCGGUCAGUUUCUGAUCGAGAAGGACAUGAGGAUCACCCAUGUAAAUUGCCCGCUUUGUGGGUACGC [JL ENG1 3.60] (Eterna round: R96, puzzle: Exclusion NG 1)	–	59.3 nM	22.5 nM	–	–	19.1 nM
GCGUUCUGAGGAUAUACAUGAGGAUCACCCAUGUUGAGAAUUAUGUAUAAAAGAUUAUGUAGAAGGCAGAGUGC [JR_Ex3_Sub071] (Eterna round: R97, puzzle: Exclusion 3)	–	140 nM	716 nM	–	–	–
